In US20240158537A1:

Target: IL-7 receptor (IL-7R), heterodimer of IL-7R alpha (CD127) and common gamma chain (CD132), on primary human T cells (human) (UniProt P16871)
Assay: cell-based or functional assay

Sequence of IL-7 receptor (IL-7R), heterodimer of IL-7R alpha (CD127) and common gamma chain (CD132), on primary human T cells (human) (P16871 21-459, chain 1 of 2): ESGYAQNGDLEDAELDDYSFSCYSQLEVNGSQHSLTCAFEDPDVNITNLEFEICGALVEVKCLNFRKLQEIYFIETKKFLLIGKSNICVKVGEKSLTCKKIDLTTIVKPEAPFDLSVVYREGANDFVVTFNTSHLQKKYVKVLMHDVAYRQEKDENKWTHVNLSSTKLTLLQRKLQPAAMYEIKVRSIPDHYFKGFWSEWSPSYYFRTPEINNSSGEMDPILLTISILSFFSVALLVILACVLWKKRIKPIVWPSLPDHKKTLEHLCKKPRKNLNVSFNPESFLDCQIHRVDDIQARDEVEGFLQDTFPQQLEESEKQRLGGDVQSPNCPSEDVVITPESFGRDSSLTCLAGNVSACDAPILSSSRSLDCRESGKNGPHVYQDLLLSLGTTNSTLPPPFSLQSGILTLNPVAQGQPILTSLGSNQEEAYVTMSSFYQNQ
Sequence of IL-7 receptor (IL-7R), heterodimer of IL-7R alpha (CD127) and common gamma chain (CD132), on primary human T cells (human) (P31785 23-369, chain 2 of 2, further chain): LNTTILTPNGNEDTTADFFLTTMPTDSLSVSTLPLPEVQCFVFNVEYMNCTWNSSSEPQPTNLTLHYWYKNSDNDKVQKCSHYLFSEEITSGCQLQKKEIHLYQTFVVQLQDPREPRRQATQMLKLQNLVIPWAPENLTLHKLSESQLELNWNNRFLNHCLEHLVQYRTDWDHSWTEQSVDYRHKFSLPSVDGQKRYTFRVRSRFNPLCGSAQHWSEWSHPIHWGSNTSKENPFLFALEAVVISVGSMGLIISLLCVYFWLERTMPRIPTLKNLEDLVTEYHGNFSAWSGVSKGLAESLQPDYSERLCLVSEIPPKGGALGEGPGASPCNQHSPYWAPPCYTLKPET

B1: WT IL-7 His (SEQ ID NO: 2), native IL-7 with His-tag (ligand)
chain: DCDIEGKDGKQYESVLMVSIDQLLDSMKEIGSNCLNNEFNFFKRHICDANKEGMFLFRAARKLRQFLKMNSTGDFDLHLLKVSEGTTILLNCTGQVKGRKPAALGEAQPTKSLEENKSLKEQKKLNDLCFLKRLLQEIKTCWNKILMGTKEHVDHHHHHH
For B1, the Avg EC50 (nM) (human pSTAT5), CD4 Memory was 0.001 nM, the Avg EC50 (nM) (human pSTAT5), CD4 Naive was 0.001 nM and the Avg EC50 (nM) (human pSTAT5), CD4 Treg was 0.033 nM. For the same binder, the Avg EC50 (nM) (human pSTAT5), CD8 Memory was 0.006 nM and the Avg EC50 (nM) (human pSTAT5), CD8 Naive was 0.002 nM.
